Measured values reported in PMC8298264, “Function of cofactor Akirin2 in the regulation of gene expression in model human neutrophil-like HL60 cells” (Bioscience Reports, 2021).

B1: sp¦Q99614¦TTC1_HUMAN (protein, UniProt Q99614 1-292, looked up)
Tetratricopeptide repeat …: MGEKSENCGVPEDLLNGLKVTDTQEAECAGPPVPDPKNQHSQSKLLRDDEAHLQEDQGEEECFHDCSASFEEEPGADKVENKSNEDVNSSELDEEYLIELEKNMSDEEKQKRREESTRLKEEGNEQFKKGDYIEAESSYSRALEMCPSCFQKERSILFSNRAAARMKQDKKEMAINDCSKAIQLNPSYIRAILRRAELYEKTDKLDEALEDYKSILEKDPSIHQAREACMRLPKQIEERNERLKEEMLGKLKDLGNLVLRPFGLSTENFQIKQDSSTGSYSINFVQNPNNNR
B2: sp¦Q8NC51¦PAIRB_HUMAN (protein, UniProt Q8NC51 2-408, looked up)
SERPINE1 mRNA-binding protein …: PGHLQEGFGCVVTNRFDQLFDDESDPFEVLKAAENKKKEAGGGGVGGPGAKSAAQAAAQTNSNAAGKQLRKESQKDRKNPLPPSVGVVDKKEETQPPVALKKEGIRRVGRRPDQQLQGEGKIIDRRPERRPPRERRFEKPLEEKGEGGEFSVDRPIIDRPIRGRGGLGRGRGGRGRGMGRGDGFDSRGKREFDRHSGSDRSSFSHYSGLKHEDKRGGSGSHNWGTVKDELTESPKYIQKQISYNYSDLDQSNVTEETPEGEEHHPVADTENKENEVEEVKEEGPKEMTLDEWKAIQNKDRAKVEFNIRKPNEGADGQWKKGFVLHKSKSEEAHAEDSVMDHHFRKPANDITSQLEINFGDLGRPGRGGRGGRGGRGRGGRPNRGSRTDKSSASAPDVDDPEAFPALA
B3: sp¦P12814¦ACTN1_HUMAN (protein, UniProt P12814 1-892, looked up)
Alpha-actinin-1: MDHYDSQQTNDYMQPEEDWDRDLLLDPAWEKQQRKTFTAWCNSHLRKAGTQIENIEEDFRDGLKLMLLLEVISGERLAKPERGKMRVHKISNVNKALDFIASKGVKLVSIGAEEIVDGNVKMTLGMIWTIILRFAIQDISVEETSAKEGLLLWCQRKTAPYKNVNIQNFHISWKDGLGFCALIHRHRPELIDYGKLRKDDPLTNLNTAFDVAEKYLDIPKMLDAEDIVGTARPDEKAIMTYVSSFYHAFSGAQKAETAANRICKVLAVNQENEQLMEDYEKLASDLLEWIRRTIPWLENRVPENTMHAMQQKLEDFRDYRRLHKPPKVQEKCQLEINFNTLQTKLRLSNRPAFMPSEGRMVSDINNAWGCLEQVEKGYEEWLLNEIRRLERLDHLAEKFRQKASIHEAWTDGKEAMLRQKDYETATLSEIKALLKKHEAFESDLAAHQDRVEQIAAIAQELNELDYYDSPSVNARCQKICDQWDNLGALTQKRREALERTEKLLETIDQLYLEYAKRAAPFNNWMEGAMEDLQDTFIVHTIEEIQGLTTAHEQFKATLPDADKERLAILGIHNEVSKIVQTYHVNMAGTNPYTTITPQEINGKWDHVRQLVPRRDQALTEEHARQQHNERLRKQFGAQANVIGPWIQTKMEEIGRISIEMHGTLEDQLSHLRQYEKSIVNYKPKIDQLEGDHQLIQEALIFDNKHTNYTMEHIRVGWEQLLTTIARTINEVENQILTRDAKGISQEQMNEFRASFNHFDRDHSGTLGPEEFKACLISLGYDIGNDPQGEAEFARIMSIVDPNRLGVVTFQAFIDFMSRETADTDTADQVMASFKILAGDKNYITMDELRRELPPDQAEYCIARMAPYTGPDSVPGALDYMSFSTALYGESDL
B4: sp¦O14745¦NHRF1_HUMAN (protein, UniProt O14745 2-358, looked up)
Na(+)/H(+) exchange …: SADAAAGAPLPRLCCLEKGPNGYGFHLHGEKGKLGQYIRLVEPGSPAEKAGLLAGDRLVEVNGENVEKETHQQVVSRIRAALNAVRLLVVDPETDEQLQKLGVQVREELLRAQEAPGQAEPPAAAEVQGAGNENEPREADKSHPEQRELRPRLCTMKKGPSGYGFNLHSDKSKPGQFIRSVDPDSPAEASGLRAQDRIVEVNGVCMEGKQHGDVVSAIRAGGDETKLLVVDRETDEFFKKCRVIPSQEHLNGPLPVPFTNGEIQKENSREALAEAALESPRPALVRSASSDTSEELNSQDSPPKQDSTAPSSTSSSDPILDFNISLAMAKERAHQKRSSKRAPQMDWSKKNELFSNL
B5: sp¦O00273¦DFFA_HUMAN (protein, UniProt O00273 1-331, looked up)
DNA fragmentation factor …: MEVTGDAGVPESGEIRTLKPCLLRRNYSREQHGVAASCLEDLRSKACDILAIDKSLTPVTLVLAEDGTIVDDDDYFLCLPSNTKFVALASNEKWAYNNSDGGTAWISQESFDVDETDSGAGLKWKNVARQLKEDLSSIILLSEEDLQMLVDAPCSDLAQELRQSCATVQRLQHTLQQVLDQREEVRQSKQLLQLYLQALEKEGSLLSKQEESKAAFGEEVDAVDTGISRETSSDVALASHILTALREKQAPELSLSSQDLELVTKEDPKALAVALNWDIKKTETVQEACERELALRLQQTQSLHSLRSISASKASPPGDLQNPKRARQDPT
B6: sp¦Q9Y3F4¦STRAP_HUMAN (protein, UniProt Q9Y3F4 1-350, looked up)
Serine-threonine kinase …: MAMRQTPLTCSGHTRPVVDLAFSGITPYGYFLISACKDGKPMLRQGDTGDWIGTFLGHKGAVWGATLNKDATKAATAAADFTAKVWDAVSGDELMTLAHKHIVKTVDFTQDSNYLLTGGQDKLLRIYDLNKPEAEPKEISGHTSGIKKALWCSEDKQILSADDKTVRLWDHATMTEVKSLNFNMSVSSMEYIPEGEILVITYGRSIAFHSAVSLDPIKSFEAPATINSASLHPEKEFLVAGGEDFKLYKYDYNSGEELESYKGHFGPIHCVRFSPDGELYASGSEDGTLRLWQTVVGKTYGLWKCVLPEEDSGELAKPKIGFPETTEEELEEIASENSDCIFPSAPDVKA
B7: sp¦P41218¦MNDA_HUMAN (protein, UniProt P41218 1-407, looked up)
Myeloid cell nuclear …: MVNEYKKILLLKGFELMDDYHFTSIKSLLAYDLGLTTKMQEEYNRIKITDLMEKKFQGVACLDKLIELAKDMPSLKNLVNNLRKEKSKVAKKIKTQEKAPVKKINQEEVGLAAPAPTARNKLTSEARGRIPVAQKRKTPNKEKTEAKRNKVSQEQSKPPGPSGASTSAAVDHPPLPQTSSSTPSNTSFTPNQETQAQRQVDARRNVPQNDPVTVVVLKATAPFKYESPENGKSTMFHATVASKTQYFHVKVFDINLKEKFVRKKVITISDYSECKGVMEIKEASSVSDFNQNFEVPNRIIEIANKTPKISQLYKQASGTMVYGLFMLQKKSVHKKNTIYEIQDNTGSMDVVGSGKWHNIKCEKGDKLRLFCLQLRTVDRKLKLVCGSHSFIKVIKAKKNKEGPMNVN
B8: Serine protease 57 (protein, UniProt Q6UWY2 32-283, looked up)
Serine protease 57: AQIIGGHEVTPHSRPYMASVRFGGQHHCGGFLLRARWVVSAAHCFSHRDLRTGLVVLGAHVLSTAEPTQQVFGIDALTTHPDYHPMTHANDICLLRLNGSAVLGPAVGLLRPPGRRARPPTAGTRCRVAGWGFVSDFEELPPGLMEAKVRVLDPDVCNSSWKGHLTLTMLCTRSGDSHRRGFCSADSGGPLVCRNRAHGLVSFSGLWCGDPKTPDVYTQVSAFVAWIWDVVRRSSPQPGPLPGTTRPPGEAA
B9: sp¦P50502¦F10A1_HUMAN (protein, UniProt P50502 1-369, looked up)
Hsc70-interacting protein: MDPRKVNELRAFVKMCKQDPSVLHTEEMRFLREWVESMGGKVPPATQKAKSEENTKEEKPDSKKVEEDLKADEPSSEESDLEIDKEGVIEPDTDAPQEMGDENAEITEEMMDQANDKKVAAIEALNDGELQKAIDLFTDAIKLNPRLAILYAKRASVFVKLQKPNAAIRDCDRAIEINPDSAQPYKWRGKAHRLLGHWEEAAHDLALACKLDYDEDASAMLKEVQPRAQKIAEHRRKYERKREEREIKERIERVKKAREEHERAQREEEARRQSGAQYGSFPGGFPGGMPGNFPGGMPGMGGGMPGMAGMPGLNEILSDPEVLAAMQDPEVMVAFQDVAQNPANMSKYQSNPKVMNLISKLSAKFGGQA

Tested on: human HL60 cells
Assay: SWATH-MS proteomics, differential protein representation, akirin2 KO vs WT HL60 cells
Format: cell-based
Settings: Over-represented in KO; KO vs WT HL60 cells
Method: Total proteins were extracted from WT and akirin2 KO HL60 cells using the AllPrep DNA/RNA/Protein Mini Kit (Qiagen) and protein concentration was determined using the BCA Protein Assay with BSA (Sigma–Aldrich) as standard. Protein extracts (150 µg per sample, n=3 biological replicates) from each WT and KO cells were trypsin digested using the FASP Protein Digestion Kit (Expedeon Ltd., Abcam, Cambridge, U.K.) and sequencing grade trypsin (Promega, Madison, WI, U.S.A.) following manufacturer’s recommendations. The resulting peptides were finally desalted on to OMIX Pipette tips C18 (Agilent Technologies, Santa Clara, CA, U.S.A.), dried down and stored at −20 °C until mass spectrometry analysis. […] Three micrograms of each protein digest from the three biological replicates of WT and akirin2 KO HL60 cells were used for the generation of the reference spectral ion library as part of the SWATH-MS analysis.
Peptides were eluted in a 120-min gradient from 5 to 30% solvent B in solvent A followed by 15-min gradient from 30 to 60% solvent B in solvent A (solvent A: 0.1% formic acid in water, solvent B: 0.1% formic acid in acetonitrile) and directly injected into the mass spectrometer for analysis. For IDA experiments, the mass spectrometer was set to scanning full spectra (350–1400 m/z) using 250 ms accumulation time per spectrum, followed by up to 50 MS/MS scans (100–1500 m/z). Candidate ions with a charge state between +2 and +5 counts per second above a minimum threshold of 100 were isolated for fragmentation. One MS/MS spectrum was collected for 100 ms, before adding those precursor ions to the exclusion list for 15 s (mass spectrometer operated by Analyst TF 1.6, AB Sciex). Dynamic background subtraction was turned off. MS/MS analyses were recorded in high-sensitivity mode with rolling collision energy on and a collision energy spread of 5. For SWATH quantitative analysis, six independent samples (three replicates from WT and akirin2 KO HL60 cells, 5 µg each) were subjected to the cyclic DIA of mass spectra using the SWATH variable windows calculator (V 1.0, AB Sciex) and the SWATH acquisition method editor (AB Sciex), similar to established methods. […] For these experiments, a 50-ms survey scan (350–1400 m/z) was acquired at the beginning of each cycle, and SWATH–MS/MS spectra were collected from 100–1500 m/z for 70 ms at high-sensitivity mode, resulting in a cycle time of 3.6 s. Collision energy for each window was determined according to the calculation for a charge +2 ion-centered upon the window with a collision energy spread of 15. To create a spectral library of all the detectable peptides in the samples, the IDA MS raw files were combined and subjected to database search in unison using ProteinPilot software v. 5.0.1 (AB Sciex) with the Paragon algorithm. […] The detected protein threshold was set at 0.05. An independent false discovery rate (FDR) analysis, using the target–decoy approach provided by Protein Pilot (AB Sciex; https://sciex.com/products/software/proteinpilot-software), was used to assess the quality of identifications. Positive identifications were considered when identified proteins reached 1% of global FDR. […] Global normalization was performed according to the Total Area Sums (TAS) of all detected proteins in the samples. […] Heatmaps were prepared using the Heatmapper (http://www.heatmapper.ca/expression/) with average linkage and Euclidean distance measurement method.

Going from B1 to B2, the “Fold Change” value falls from 1.292 to 1.286.

Compared with B3, B4 is higher in “Fold Change” value: 1.274 for the first, 1.293 for the second.

Compared with B5, B6 is lower in “Fold Change” value: 1.2886 for the first, 1.284 for the second.

B7 was tested, and the “Fold Change” value was 1.264.

B1 and B2 are within 0.2 log units of each other in “Log (Fold Change)” value: 0.1114 for the first, 0.1092 for the second.

B3 and B4 are within 0.2 log units of each other in “Log (Fold Change)” value: 0.1053 for the first, 0.1116 for the second.

B5 and B6 are within 0.2 log units of each other in “Log (Fold Change)” value: 0.1101 for the first, 0.1086 for the second.

For B7, the “Log (Fold Change)” value was 0.1017.

Same assay, conditions: SWATH-MS, akirin2 KO vs WT HL60 cells; over-represented in KO

With B8 the “Fold Change” value was 3.338.

In the case of B8, the “Log (Fold Change)” value is reported as 0.5235.

Same assay, conditions: akirin2 KO vs WT HL60 cells; sheet "Over-represented in KO"

In the case of B9, the “Fold Change” value is reported as 1.2518.

For B9, the “Log (Fold Change)” value was 0.09753.
